Substitutions are numbered along the chain they refer to.
How the values were obtained:
POPDC1-VC155 (human) = POPDC1-VC155 (human) (UniProt Q8NE79); assay: split reporter (BiFC, NanoBiT); BiFC in HEK293 cells, split Venus VC155 on POPDC1 and VN155 on POPDC2; Venus signal normalised to co-transfected mRFP and to the wild-type pair (set to 1); conditions: scale: relative to the wild-type pair
[1] = target: the molecule itself; assay: SDS-PAGE and Western blot of oligomer bands; COS-7 cells lysed in 4 M urea and 10% SDS without a reducing agent; anti-GFP antibody detects complexes that hold POPDC1-CFP
[2] = target: the molecule itself; assay: FRET or BRET; type-1 quantitative NanoBRET in HEK293 cells; C-terminal NanoLuc and HaloTag (HaloTag-618 dye); expression ratios varied at constant total expression; curves compared to ideal curves for monomers, dimers and other stoichiometries
POPDC1 p.S201F-VC155 = target: T1, POPDC1 p.S201F-VC155 (human, UniProt Q8NE79 1-360, p.S201F); assay: split reporter (BiFC, NanoBiT); BiFC in HEK293 cells, split Venus VC155 on POPDC1 and VN155 on POPDC2; Venus signal normalised to co-transfected mRFP and to the wild-type pair (set to 1); conditions: partners not purified
T1 construct: POPDC1 (BVES), human, full-length cDNA with the patient variant p.S201F; source: HEK293, transfected, in cells; not shown: split Venus VC155, C-terminal, kept
T1 sequence (looked up): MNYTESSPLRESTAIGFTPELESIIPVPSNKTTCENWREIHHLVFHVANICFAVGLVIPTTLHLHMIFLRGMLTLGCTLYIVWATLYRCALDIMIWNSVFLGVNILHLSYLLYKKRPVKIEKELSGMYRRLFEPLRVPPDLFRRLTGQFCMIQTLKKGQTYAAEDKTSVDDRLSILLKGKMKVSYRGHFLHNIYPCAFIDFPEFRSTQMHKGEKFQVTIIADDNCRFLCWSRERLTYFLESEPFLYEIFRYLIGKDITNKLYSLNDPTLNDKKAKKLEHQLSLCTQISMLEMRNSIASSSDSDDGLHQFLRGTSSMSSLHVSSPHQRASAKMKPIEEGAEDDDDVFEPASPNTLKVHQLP

[3] = target: POPDC1 p.Q153X-VC155 (human) (UniProt Q8NE79); assay: as above; conditions: scale: relative to the wild-type pair

POPDC2 p.W188X-VN155 (from UniProt Q9HBU9 1-187) (domain or fragment)
BiFC signal relative to the wild-type pair (POPDC1-VC155 (human)): 0.59

B1: POPDC1-CFP (natural protein, human, UniProt Q8NE79 1-360, looked up)
chain: T1 sequence (looked up) with F201S
notes: POPDC1 (BVES), human, full length cDNA in pECFP-N1; printed molecular weight of POPDC1 41.5 kDa; also called POPDC1-ECFP; source: COS-7, transfected, in lysate (4 M urea, 10% SDS, no reducing agent); not shown: CFP, C-terminal, kept
stoichiometry N [1]: 2

B2: POPDC1 with C-terminal NanoLuc or HaloTag (NanoBRET constructs) (natural protein, human, UniProt Q8NE79 1-360, looked up)
chain: T1 sequence (looked up) with F201S
modifications: HaloTag-618 dye on the HaloTag copy
notes: POPDC1 (BVES), human cDNA cloned into pFC14K (HaloTag) or pFC32K (NanoLuc); Two differently tagged copies of one protein, written as one molecule: each copy carries only one of the two tags; With POPDC2-NL the HaloTag copy was used; also called POPDC1-NL; POPDC1-HT; source: HEK293, transiently transfected, in live cells; not shown: NanoLuc (on the copy POPDC1-NL), C-terminal, kept; HaloTag (on …)
stoichiometry N [2]: 2

B3: POPDC2-VN155 (natural protein, human, UniProt Q9HBU9 1-364, looked up)
chain: MSANSSRVGQLLLQGSACIRWKQDVEGAVYHLANCLLLLGFMGGSGVYGCFYLFGFLSAGYLCCVLWGWFSACGLDIVLWSFLLAVVCLLQLAHLVYRLREDTLPEEFDLLYKTLCLPLQVPLQTYKEIVHCCEEQVLTLATEQTYAVEGETPINRLSLLLSGRVRVSQDGQFLHYIFPYQFMDSPEWESLQPSEEGVFQVTLTAETSCSYISWPRKSLHLLLTKERYISCLFSALLGYDISEKLYTLNDKLFAKFGLRFDIRLPSLYHVLGPTAADAGPESEKGDEEVCEPAVSPPQATPTSLQQTPPCSTPPATTNFPAPPTRARLSRPDSGILASRIPLQSYSQVISRGQAPLAPTHTPEL
notes: POPDC2, human, full-length wild-type cDNA; also called wild-type POPDC2 with split Venus VN155; source: HEK293, transfected, in cells; not shown: split Venus VN155, C-terminal, kept
BiFC signal relative to the wild-type pair (POPDC1 p.S201F-VC155): 0.43 relative to the wild-type pair (set to 1)
BiFC signal relative to the wild-type pair [3]: 0.248

Reference: PMC9830914, “Differential effects of mutations of POPDC proteins on heteromeric interaction and membrane trafficking” (Acta Neuropathologica Communications, 2023)
